Positions count from the first letter of the chain named. Names may count otherwise. Read-outs that look alike come from different tables or passages of the source.
Experiments:
human CD38 on cells [1] = molecular target: T1, human CD38 on cells (human, UniProt P28907 1-300); assay: cell-based or functional assay
[2] = molecular target: T2, soluble extracellular region of human CD38 fused to a 6-His-tag (human, UniProt P28907 43-300); assay: SPR, antibody captured on protein G, CD38 injected
T2 construct: Expressed with the murine VJ2C leader; also called human CD38 protein; human CD38 antigen

human CD38 on cells [3] = molecular target: T1, human CD38 on cells; assay: cell-based or functional assay; remark: listed apart in the source
[4] = molecular target: T3, human CD3 epsilon on cells (human, UniProt P07766 23-207); assay: FACS staining of HPB-ALL cells, human IgG1 format, graded relative to chimeric OKT3
T3 construct: whole, on cells; On cells it stands in the CD3/TCR complex; also called HPB-ALL cells (human CD3 epsilon positive T cell tumour line); CD3 on human T cells
Description: (§1) HPB-ALL cells (DSMZ, Braunschweig, Germany, Cat. No: ACC483) were used as CD3 positive cell line for FACS staining. […] After washing, cells were incubated with a 1/200 dilution of anti-Human Fc-PE (EBioscience, Vienna, Austria) for 45 min on ice. Cells were then washed again and resuspended in 200 ul FACS buffer.

[5] = molecular target: T3, human CD3 epsilon on cells; assay: as above; remark: listed apart in the source
Description: as §1

[6] = molecular target: T2, soluble extracellular region of human …; assay: SPR
[7] = molecular target: T4, soluble extracellular region of cynomolgus monkey CD38 antigen fused to a 6-His-tag (cynomolgus monkey, UniProt Q5VAN0 45-301); assay: SPR
T4 construct: also called cynomolgus CD38

B1: BEAT CD38-HB7bestfit/CD3 antibody (bispecific antibody, human IgG1, kappa, L234A L235A)
heavy: QVQLQESGPGLVKPSETLSLTCTVSGFSLISYGVHWVRQPPGKGLEWLGVIWRGGSTDYNAAFMSRLTISKDNSKNQVSLKLSSVTAADTAVYFCAKTLITTGYAMDYWGQGTLVTVSSASTKGPSVFPLAPSSKSTSGGTAALGCLVKDYFPEPVTVSWNSGALTSGVHTFPAVLQSSGLYSLSSVVTVPSSSLGTQTYICNVNHKPSNTKVDKKVEPKSCDKTHTCPPCPAPEAAGGPSVFLFPPKPKDTLMISRTPEVTCVVVDVSHEDPEVKFNWYVDGVEVHNAKTKPREEQYNSTYRVVSVLTVLHQDWLNGKEYKCKVSNKALPAPIEKTISKAKGQPREPAVYTLPPSRDELTKNQVKLVCLVTGFYPSDIAVEWESNGQPENNYYTTPPVLDSDGSFSLVSWLNVDKSRWQQGNVFSCSVMHEALHNHYTQKSLSLSPGK
light: DIQLTQSPSSLSASVGDRVTITCRASEDIYNRLAWYQQKPGKAPKLLISGATSLETGVPSRFSGSGSGKDYTLTISSLQPEDFATYYCQQYWSTPTFGQGTKLEIKRTVAAPSVFIFPPSDEQLKSGTASVVCLLNNFYPREAKVQWKVDNALQSGNSQESVTEQDSKDSTYSLSSTLTLSKADYEKHKVYACEVTHQGLSSPVTKSFNRGEC
chain: EVQLVESGGGLVQPGGSLRLSCAASGYTFTRYTMHWVRQAPGKGLEWIGYINPSRGYTYYADSVKGRFTLSTDKSKNTAYLQMSSLRAEDTAVYYCARYYDDHYCLDYWGQGTLVTVSSGGGGSGGGGSGGGGSGGGASDIQLTQSPSSLSASVGDRVTITCRASSSVSYVAWYQQKPGKAPKRWIYDTSKLYSGVPSRFSGSGSGTDYTLTISSLQPEDFATYYCQQWSSNPPTFGQGTKVEIKGGGGTDKTHTCPPCPAPEAAGGPSVFLFPPKPKDTLMISRTPEVTCVVVDVSHEDPEVQFKWYVDGVEVHNAKTKPREEQYNSTFRVVSVLTVLHQDWLNGKEYKCKVSNKALPAPIEKTISKTKGQPREPEVATFPPSREEMTKNQVTLVCLVTGFYPSDIAVEWESSGQPENNYNTDPPLLESDGSFALSSRLRVDKSRWQQGNIFSCSVMHEALHNRFTQKSLSLSPGK
notes: Anti-CD38 FAB arm and anti-CD3 epsilon scFv BEAT heavy chain (third chain)
For B1, the “T cell redirected killing of RPMI 8226 myeloma cells, RDL-FACS method, EC50” value (human CD38 on cells [1]) was 0.0022 nM and the Kd [2] was 3.2 nM.

B2: BEAT CD38-HB7bestfit/CD3(SP34) antibody (bispecific antibody)
heavy: QVQLQESGPGLVKPSETLSLTCTVSGFSLISYGVHWVRQPPGKGLEWLGVIWRGGSTDYNAAFMSRLTISKDNSKNQVSLKLSSVTAADTAVYFCAKTLITTGYAMDYWGQGTLVTVSSASTKGPSVFPLAPSSKSTSGGTAALGCLVKDYFPEPVTVSWNSGALTSGVHTFPAVLQSSGLYSLSSVVTVPSSSLGTQTYICNVNHKPSNTKVDKKVEPKSCDKTHTCPPCPAPEAAGGPSVFLFPPKPKDTLMISRTPEVTCVVVDVSHEDPEVQFKWYVDGVEVHNAKTKPREEQYNSTFRVVSVLTVLHQDWLNGKEYKCKVSNKALPAPIEKTISKTKGQPREPAVYTLPPSREEMTKNQVKLVCLVTGFYPSDIAVEWESSGQPENNYYTTPPMLDSDGSFSLVSWLNVDKSRWQQGNIFSCSVMHEALHNRFTQKSLSLSPGK
light: B1 light
chain: not shown
With B2 the “T cell redirected killing of Daudi cells, RDL-FACS method, EC50” value (human CD38 on cells [1]) was 0.0018 nM.

B3: BEAT CD38-9G7Mouse/CD3 (bispecific antibody, human IgG1, kappa, L234A L235A)
heavy: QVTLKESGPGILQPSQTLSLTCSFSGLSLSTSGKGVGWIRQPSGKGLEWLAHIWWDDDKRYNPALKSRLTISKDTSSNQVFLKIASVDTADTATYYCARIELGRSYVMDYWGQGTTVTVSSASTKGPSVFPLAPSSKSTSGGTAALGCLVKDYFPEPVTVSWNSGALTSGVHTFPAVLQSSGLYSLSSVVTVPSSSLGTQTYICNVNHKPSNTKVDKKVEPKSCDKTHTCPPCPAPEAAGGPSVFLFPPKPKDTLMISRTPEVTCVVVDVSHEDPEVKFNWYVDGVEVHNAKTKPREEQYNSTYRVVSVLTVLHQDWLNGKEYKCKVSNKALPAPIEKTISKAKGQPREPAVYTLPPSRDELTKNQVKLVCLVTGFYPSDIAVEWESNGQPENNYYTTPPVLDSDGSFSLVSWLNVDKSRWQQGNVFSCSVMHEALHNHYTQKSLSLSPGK
light: DIVMTQSHKFMSTSVGDRVSISCKASQDVITSVAWFQQKPGQSPKLLIYSASYRYTGVPDRFTGSGSGTDFTFTISSVQAEDLAVYYCQQHYTIPLTFGAGTKLELKRTVAAPSVFIFPPSDEQLKSGTASVVCLLNNFYPREAKVQWKVDNALQSGNSQESVTEQDSKDSTYSLSSTLTLSKADYEKHKVYACEVTHQGLSSPVTKSFNRGEC
chain: EVQLVESGGGLVQPGGSLRLSCAASGYTFTRYTMHWVRQAPGKGLEWIGYINPSRGYTYYADSVKGRFTLSTDKSKNTAYLQMSSLRAEDTAVYYCARYYDDHYCLDYWGQGTLVTVSSGGGGSGGGGSGGGGSDIQLTQSPSSLSASVGDRVTITCRASSSVSYVAWYQQKPGKAPKRWIYDTSKLYSGVPSRFSGSGSGTDYTLTISSLQPEDFATYYCQQWSSNPPTFGQGTKVEIKGGGGTDKTHTCPPCPAPEAAGGPSVFLFPPKPKDTLMISRTPEVTCVVVDVSHEDPEVQFKWYVDGVEVHNAKTKPREEQYNSTFRVVSVLTVLHQDWLNGKEYKCKVSNKALPAPIEKTISKTKGQPREPEVATFPPSREEMTKNQVTLVCLVTGFYPSDIAVEWESSGQPENNYNTDPPLLESDGSFALSSRLRVDKSRWQQGNIFSCSVMHEALHNRFTQKSLSLSPGK
In the case of B3, the “killing assay against Daudi cells, flow cytometry readout, EC50 (pM)” value (human CD38 on cells [3]) is reported as 3.2 pM.

B4: VH5/VL3 (antibody, human IgG1, kappa, V domains shown)
VH: EVQLVESGGGLVQPGGSLRLSCAASGYTFTRYTMHWVRQAPGKGLEWVGYINPSRGYTRYADSVKGRFTLSTDKSKNTAYLQMNSLRAEDTAVYYCARYYDDHYCLDYWGQGTLVTVSS
VL: DIQLTQSPSSLSASVGDRVTITCRASSSVSYVAWYQQKPGKAPKLLIYDTSKLYSGVPSRFSGSRSGTDYTLTISSLQPEDFATYYCQQWSSNPPTFGQGTKVEIKR
notes: human IgG1; also called humanized OKT3 VH5/VL3 antibody; copies: 2 + 2
B4: binds [4].

B5: VH5/VL4 (antibody, human IgG1, kappa, V domains shown)
VH: B4 VH
VL: B4 VL with L45R, L46W
notes: human IgG1; also called humanized OKT3 VH5/VL4 antibody; copies: 2 + 2
B5: binds [4].

B6: VH5/VL6 (antibody, human IgG1, kappa, V domains shown)
VH: B4 VH
VL: B4 VL with L45R, L46W, P95F
notes: human IgG1; also called humanized OKT3 VH5/VL6 antibody; copies: 2 + 2
B6: binds [4].

B7: VH6/VL4 (antibody, human IgG1, kappa, V domains shown)
VH: B4 VH with V48I
VL: B4 VL with L45R, L46W
notes: human IgG1; also called humanized OKT3 VH6/VL4 antibody; copies: 2 + 2
B7: binds [4].

B8: VH6/VL5 (antibody, human IgG1, kappa, V domains shown)
VH: B4 VH with V48I
VL: B4 VL with V32M, A33N
notes: human IgG1; also called humanized OKT3 VH6/VL5 antibody; copies: 2 + 2
B8: binds [4].

B9: VH6/VL6 (antibody, human IgG1, kappa, V domains shown)
VH: B4 VH with V48I
VL: B4 VL with L45R, L46W, P95F
notes: human IgG1; also called humanized OKT3 VH6/VL6 antibody; copies: 2 + 2
B9: binds [4].

B10: VH6/VL8 (antibody, human IgG1, kappa, V domains shown)
VH: B4 VH with V48I
VL: B4 VL with L45R, L46W, R65G
notes: human IgG1; also called humanized OKT3 VH6/VL8 antibody; copies: 2 + 2
B10: binds [5].

B11: VH7/VL4 (antibody, human IgG1, kappa, V domains shown)
VH: B4 VH with R59N
VL: B4 VL with L45R, L46W
notes: human IgG1; also called humanized OKT3 VH7/VL4 antibody; copies: 2 + 2
B11: binds [5].

B12: VH9/VL8 (antibody, human IgG1, kappa, V domains shown)
VH: B4 VH with V48I, R59Y, G66S
VL: B4 VL with L45R, L46W, R65G
notes: human IgG1; also called humanized OKT3 VH9/VL8 antibody; copies: 2 + 2
B12: binds [5].

B13: VH10/VL4 (antibody, human IgG1, kappa, V domains shown)
VH: B4 VH with V48I, R59Y, G66S, F68A
VL: B4 VL with L45R, L46W
notes: human IgG1; also called humanized OKT3 VH10/VL4 antibody; copies: 2 + 2
B13: binds [5].

B14: VH10/VL8 (antibody, human IgG1, kappa, V domains shown)
VH: B4 VH with V48I, R59Y, G66S, F68A
VL: B4 VL with L45R, L46W, R65G
notes: human IgG1; also called humanized OKT3 VH10/VL8 antibody; copies: 2 + 2
B14: binds [5].

B15: humanized OKT3 VH8/VL4 antibody (antibody, human IgG1, V domains shown)
VH: B4 VH with V48I, R59Y
VL: B4 VL with L45R, L46W
notes: Human IgG1; copies: 2 + 2
B15: binds [5].

B16: humanized OKT3 VH11/VL4 antibody (antibody, human IgG1, V domains shown)
VH: B4 VH with V48I, R59Y, N84S
VL: B4 VL with L45R, L46W
notes: Human IgG1; copies: 2 + 2
B16: binds [5].

B17: humanized 9G7 best-fit antibody (antibody, human IgG1, kappa, V domains shown)
VH: QVTLKESGPTLVKPTQTLTLTCTFSGLSLSTSGKGVGWIRQPPGKALEWLAHIWWDDDKRYNPALKSRLTITKDTSKNQVVLTMTNMDPVDTATYYCARIELGRSYVMDYWGQGTLVTVSS
VL: DIQMTQSPSSLSASVGDRVTITCQASQDVITSVAWYQQKPGKAPKLLIYSASYRYTGVPSRFSGSGSGTDFTFTISSLQPEDIATYYCQQHYTIPLTFGQGTKLEIKR
notes: Human IgG1; light chain carries the F36Y back mutation (Kabat); also called 9G7 best-fit F36Y humanized variant
B17 was tested, and the “fold improvement of affinity over the first prototype” value [6] was 2 fold, the Kd [7] was 3.2 nM and the Kd [2] was 0.5 nM.

B18: humanized HB-7 best-fit antibody (antibody, human IgG1, kappa, V domains shown)
VH: QVQLQESGPGLVKPSETLSLTCTVSGFSLISYGVHWVRQPPGKGLEWLGVIWRGGSTDYNAAFMSRLTISKDNSKNQVSLKLSSVTAADTAVYFCAKTLITTGYAMDYWGQGTLVTVSS
VL: DIQLTQSPSSLSASVGDRVTITCRASEDIYNRLAWYQQKPGKAPKLLISGATSLETGVPSRFSGSGSGKDYTLTISSLQPEDFATYYCQQYWSTPTFGQGTKLEIKR
notes: Human IgG1 format
With B18 the Kd [2] was 3.6 nM.

B19: chimeric HB-7 antibody (antibody, human IgG1, kappa, V domains shown)
VH: KVQLQESGPSLVQPSQRLSITCTVSGFSLISYGVHWVRQSPGKGLEWLGVIWRGGSTDYNAAFMSRLSITKDNSKSQVFFKMNSLQADDTAIYFCAKTLITTGYAMDYWGQGTTVTVSS
VL: DIELTQSPSSFSVSLGDRVTITCKASEDIYNRLAWYQQKPGNAPRLLISGATSLETGVPSRFSGSGSGKDYTLSITSLQTEDVATYYCQQYWSTPTFGGGTKLEIKR
For B19, the Kd [2] was 2.5 nM.

B20: first humanized 9G7 antibody prototype (best-fit approach, post CDR grafting) (antibody, human IgG1, kappa, V domains shown)
VH: B17 VH
VL: B17 VL with Y36F
notes: Human IgG1 isotype; also called first antibody prototype; first humanized prototype
With B20 the Kd [6] was 1 nM and the “fold lower binding than the mouse parental antibody” value [6] was 3 fold.

B21: humanized 9G7 best-framework antibody (antibody, human IgG1, kappa, V domains shown)
VH: EVQLVESGGGLVQPGGSLRLSCAFSGLSLSTSGKGVGWIRQAPGKGLEWLAHIWWDDDKRYNPALKSRLTISKDTSKNTVYLQMNSLRAEDTAVYYCARIELGRSYVMDYWGQGTLVTVSS
VL: B17 VL with Q24R, Y36F, F73L, I83F, L104V
notes: Human IgG1
With B21 the Kd [7] was 1 nM and the Kd [2] was 0.4 nM.

— patent US20190135918A1 (ICHNOS SCIENCES, published 2019)
